Target: acid-purified histones (human (endogenous in TE-7))

B1: recombinant GST-tagged full-length IL-33 (H00090865-P01, Abnova) (natural protein)
chain: MKPKMKYSTNKISTAKWKNTASKALCFKLGKSQQKAKEVCPMYFMKLRSGLMIKKEACYFRRETTKRPSLKTGRKHKRHLVLAACQQQSTVECFAFGISGVQKYTRALHDSSITGISPITEYLASLSTYNDQSITFALEDESYEIYVEDLKKDEKKDKVLLSYYESQHPSNESGDGVDGKMLMVTLSPTKDFWLHANNKEHSVELHKCEKPLPDQAFFVLHNMHSNCVSFECKTDPGVFIGVKDNHLALIKVDSSENLCTENILFKLSET
  CCL2 secretion by HMC-1 mast cells (42-cytokine multiplex array), fold change against untreated, 23.4 nM recombinant WT IL-33 without and with 6.7 µg/mL acid-purified histones: 822 fold

From PMC6092330
